The text below walks through data of patent US20140243502A1.

The target in experiment [1] is GP IIb/IIIa in its activated, fibrinogen-bound state on activated mouse platelets (mouse) (UniProt Q9QUM0). As to the kind of experiment: histology of wire-injured mouse femoral artery after bead perfusion, 20-25 sections per animal.
For experiment [2] the target is unchanged. The experiment can be described thus: ex vivo 11.7 T MRI of wire-injured mouse femoral artery after bead perfusion.

Sequence of GP IIb/IIIa in its activated, fibrinogen-bound state on activated mouse platelets (mouse) (Q9QUM0 32-1033, chain 1 of 2): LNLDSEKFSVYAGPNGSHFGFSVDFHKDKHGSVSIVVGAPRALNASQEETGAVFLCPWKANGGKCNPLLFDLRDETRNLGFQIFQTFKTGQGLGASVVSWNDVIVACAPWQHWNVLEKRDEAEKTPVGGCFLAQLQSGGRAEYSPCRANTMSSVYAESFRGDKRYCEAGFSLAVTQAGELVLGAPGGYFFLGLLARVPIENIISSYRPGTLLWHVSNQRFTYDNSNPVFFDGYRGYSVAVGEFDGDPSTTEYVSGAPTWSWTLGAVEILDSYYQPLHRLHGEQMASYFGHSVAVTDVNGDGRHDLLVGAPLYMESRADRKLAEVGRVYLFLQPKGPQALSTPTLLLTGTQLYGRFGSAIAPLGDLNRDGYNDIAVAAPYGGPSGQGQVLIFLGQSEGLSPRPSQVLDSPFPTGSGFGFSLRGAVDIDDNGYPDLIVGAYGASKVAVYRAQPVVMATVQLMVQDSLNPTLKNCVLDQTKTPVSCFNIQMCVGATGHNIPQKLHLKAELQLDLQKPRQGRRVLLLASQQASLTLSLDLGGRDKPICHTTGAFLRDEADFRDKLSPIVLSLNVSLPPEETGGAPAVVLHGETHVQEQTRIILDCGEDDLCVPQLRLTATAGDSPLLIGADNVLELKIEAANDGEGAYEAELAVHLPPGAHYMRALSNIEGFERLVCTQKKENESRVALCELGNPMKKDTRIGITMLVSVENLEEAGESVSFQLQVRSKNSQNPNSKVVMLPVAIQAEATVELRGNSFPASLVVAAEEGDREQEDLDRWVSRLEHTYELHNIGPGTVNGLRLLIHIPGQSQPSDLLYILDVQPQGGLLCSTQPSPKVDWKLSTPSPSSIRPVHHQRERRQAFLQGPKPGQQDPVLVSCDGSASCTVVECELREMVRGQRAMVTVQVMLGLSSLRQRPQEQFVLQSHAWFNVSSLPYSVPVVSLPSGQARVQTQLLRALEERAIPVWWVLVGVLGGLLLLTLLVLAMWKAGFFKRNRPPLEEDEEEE
Sequence of GP IIb/IIIa in its activated, fibrinogen-bound state on activated mouse platelets (mouse) (O54890 26-787, chain 2 of 2, further chain): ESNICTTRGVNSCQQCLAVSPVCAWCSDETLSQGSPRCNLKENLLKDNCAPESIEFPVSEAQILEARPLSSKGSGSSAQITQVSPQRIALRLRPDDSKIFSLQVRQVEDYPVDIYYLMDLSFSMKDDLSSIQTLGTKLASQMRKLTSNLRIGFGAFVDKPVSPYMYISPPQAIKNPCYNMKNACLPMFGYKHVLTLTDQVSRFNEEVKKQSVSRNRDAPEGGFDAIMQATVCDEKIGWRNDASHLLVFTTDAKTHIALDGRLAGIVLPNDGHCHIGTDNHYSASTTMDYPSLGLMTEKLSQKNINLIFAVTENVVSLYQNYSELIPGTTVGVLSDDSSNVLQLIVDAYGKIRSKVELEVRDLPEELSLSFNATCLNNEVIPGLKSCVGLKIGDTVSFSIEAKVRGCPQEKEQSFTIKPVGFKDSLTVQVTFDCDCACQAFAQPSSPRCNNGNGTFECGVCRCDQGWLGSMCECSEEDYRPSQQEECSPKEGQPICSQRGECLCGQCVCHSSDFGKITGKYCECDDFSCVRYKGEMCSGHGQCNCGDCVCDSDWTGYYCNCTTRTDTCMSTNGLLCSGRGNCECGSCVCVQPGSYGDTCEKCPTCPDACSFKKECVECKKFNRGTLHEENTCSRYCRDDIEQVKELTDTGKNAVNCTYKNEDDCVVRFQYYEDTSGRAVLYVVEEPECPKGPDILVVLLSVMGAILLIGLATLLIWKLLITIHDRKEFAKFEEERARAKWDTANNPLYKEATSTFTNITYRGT

In experiment [1], “Control-MPIO (irrelevant single-chain antibody conjugated to 1 µm iron oxide microparticles) (scFv)” showed an MPIOs bound per histology section (beads per section) of 0.5. This substance registered a luminal areas of low signal (MPIO-induced MRI signal void) in experiment [2] of 6.2.
